Measurements taken from patent US20100016221A1, “METHOD OF DEGRADING PROTEIN BY CHAPERONE-MEDIATED AUTOPHAGY” (RIKEN, priority 2008, published 2010).

Columns and labels:
tNhtt-60Q = target: T1, tNhtt-60Q (Homo sapiens, UniProt P42858, INS38QQQQQQQQQQQQQQQQQQQQQQQQQQQQQQQQQQQQQQQ); assay: Dot blot of purified intact lysosomes from Neuro2a cells co-transfected with tNhtt-60Q; assay type: cell-based; settings: 16 hours
T1 construct: N-terminal fragment of human huntington exon 1 (tNhtt) encoding 60 CAG repeats; expressed in transfected cells; host or cells: Neuro2a cells, transient co-transfection
T1 sequence (P42858 with tags, fused parts or gaps with the stated changes): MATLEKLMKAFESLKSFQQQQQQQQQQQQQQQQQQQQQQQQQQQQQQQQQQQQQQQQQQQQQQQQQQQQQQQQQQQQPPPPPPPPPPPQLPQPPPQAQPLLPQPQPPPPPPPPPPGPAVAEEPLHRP
Description: We used a modification of the previously described method for the purification of lysosomes from CHO cells (E. A. Madden, B. Storrie, Anal. Biochem. 163, 2 (1987), E. A. Madden, J. B. Wirt, B. Storrie, Arch. Biochem. Biophys. 257, 1 (1987)). Neuro2a cells grown in 10 cm dishes were co-transfected with tNhtt-60Q and tested constructs, and after 16 hrs of incubation, cells were washed with ice cold PBS and homogenized by ten strokes. The homogenate was centrifuged at 1300 g for 5 min. The supernatant was decanted and placed on ice. The nuclear fraction was resuspended in 0.25 M sucrose and centrifuged at 1300 g for 5 min. This step was repeated 3 times and the supernatants from each wash were pooled to give a total post-nuclear supernatant (PNS). All the solutions used for the preparation of the discontinuous gradient were in 0.25 M sucrose. Gradients were prepared in cellulose nitrate tubes for Beckman SW40 rotor. Two ml of 35% Histodenz (Sigma) was overlaid with 2 ml of 17% Histodenz followed by 5 ml of 6% Percoll (Sigma). The tubes were then filled with 4.8 ml of PNS. […]
Cells were washed twice with ice-cold PBS, scraped, and resuspended in lysis buffer (0.5% Triton X-100 in PBS, 0.5 mM phenylmethylsulfonyl fluoride, Complete protease inhibitor mixture (Roche Applied Sciences)). […] Immunoreactive proteins were detected with enhanced chemiluminescence reagents (Amersham Biosciences). […]

150Q Neuro2a cells = assay: Cell death assay (propidium iodide uptake) in 150Q Neuro2a cells; assay type: cell-based, mouse; settings: after 60 hours of induction
Description: Mouse neuroblastoma (Neuro2a) cells were maintained in Dulbecco's modified Eagle's medium (Sigma) supplemented with 10% heat-inactivated fetal bovine serum (Sigma), 100 U/ml penicillin and 100 μg/ml streptomycin (Invitrogen) at 37° C. in an atmosphere containing 5% CO2 and 95% air. Establishment of stable Neuro2a cell lines with the ecdysone-inducible mammalian expression system (Invitrogen), that express tNhtt-EGFP-16Q (16Q Neuro2a cells), tNhtt-EGFP-150Q (150Q Neuro2a cells) and tNhtt-EGFP-150Q-nls (150Q-nls Neuro2a cells) has been described earlier (T. Nagai et al., supra, H. Doi et al., supra, E. A. Zemskov et al., J Neurochem. 87, 2 (2003)). Neuro2a cells were differentiated with 5mM dbcAMP (N^6, 2′-O-dibutyryladenosine-3′,5′-cyclic monophosphate sodium salt) (Nacalai Tesque) and induced to express tNhtt-polyQ with 2 μM ponasterone A (ponA; Invitrogen) for indicated times. Neuro2a/FRT/TR cell line was generated as described in the protocol for Flp-in/T-Rex system (Invitrogen). […]
For quantification of cell death, 5 μg/ml each of Hoechst 33342 and propidium iodide (PI) were added to differentiated and induced Neuro2a cells transiently transfected with either of the tested constructs (FIG. 6A). After 10 minutes at 37° C., the number of cells with PI uptake over the total number of cells was calculated by ArrayScan.

- translocation of expanded polyQ toward the lysosomes (tNhtt-60Q): efficient translocation
Substance: HSC70bm-(QBP1)2 (MARVKKDQAEPLHRKFERQPPGSNWKWWPGIFDSNWKWWPGIFD) [HQ]
- decrease of the percentage of PI-positive cells (150Q Neuro2a cells): 37.4%
